This assay concerns the target T1, Human c-Met ECD (Flag and strep tag) (human, UniProt P08581 25-932).
T1 construct: also called HMet; Human Wt c-Met; not shown: Flag and strep tag
As to the kind of experiment: ELISA; mAb immobilized (2 µg/ml), c-Met protein added, streptavidin-HRP. On the technique in general: In an ELISA, binding on a coated surface is turned into a signal by an enzyme label.

T1 sequence (P08581 25-932): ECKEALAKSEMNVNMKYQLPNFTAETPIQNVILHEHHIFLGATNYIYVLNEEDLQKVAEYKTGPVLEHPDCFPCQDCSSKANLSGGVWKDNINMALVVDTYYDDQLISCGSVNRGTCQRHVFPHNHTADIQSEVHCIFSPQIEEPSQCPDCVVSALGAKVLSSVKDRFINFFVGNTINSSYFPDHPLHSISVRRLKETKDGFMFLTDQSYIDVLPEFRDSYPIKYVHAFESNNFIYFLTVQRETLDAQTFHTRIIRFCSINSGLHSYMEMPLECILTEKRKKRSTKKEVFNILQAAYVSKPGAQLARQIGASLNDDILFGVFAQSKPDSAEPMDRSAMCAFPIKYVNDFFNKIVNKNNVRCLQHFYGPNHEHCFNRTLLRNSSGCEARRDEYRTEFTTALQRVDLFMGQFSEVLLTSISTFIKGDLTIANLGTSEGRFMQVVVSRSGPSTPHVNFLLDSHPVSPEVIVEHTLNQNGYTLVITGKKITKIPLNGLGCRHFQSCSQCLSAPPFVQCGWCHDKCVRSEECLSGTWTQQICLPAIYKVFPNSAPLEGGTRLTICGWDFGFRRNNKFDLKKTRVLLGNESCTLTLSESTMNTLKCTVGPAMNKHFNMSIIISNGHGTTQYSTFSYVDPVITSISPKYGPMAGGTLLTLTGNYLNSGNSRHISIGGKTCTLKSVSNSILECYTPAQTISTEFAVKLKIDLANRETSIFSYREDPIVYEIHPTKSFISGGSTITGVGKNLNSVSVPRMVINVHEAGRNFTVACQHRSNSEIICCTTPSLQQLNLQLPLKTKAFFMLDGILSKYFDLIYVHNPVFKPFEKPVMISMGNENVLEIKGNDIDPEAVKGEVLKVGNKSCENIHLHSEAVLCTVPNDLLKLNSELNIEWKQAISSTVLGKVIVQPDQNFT

B1: 48A2 (antibody, V domains shown)
VH: EVQLVQPGVELRNPGASVKVSCKASGYIFTMNSIDWVRQAPGQGLEWMGRIDPEDGGTKYAQKFQGRVTFTADTSTSTAYVELNSLRSEDTAVYYCARVDDYYLGYDYWGQGTQVTVSS
VL: DIVMTQTPTSVTASAGDKVTINCKSSQSVLFSSNQKNYLAWYQQRLGQSPRLLIYWASIRESGVPDRFSGSGSATDFTLTISNFQPEDAAVYYCQQGYSFPYSFGSGTRLEIR
Usually EC50 stands for the concentration giving half of the maximal effect. Read a high EC50 as a less potent agent. For the molecule B1, the EC50 was determined as 0.045 µg/mL.

The record behind these values is patent publication US20140286976A1 (ARGEN X B V, published 2014).
